Here are results for four substances from patent publication US20260116991A1.

Several values for one entry are separate records, joined by “and”; a condition that tells them apart may be missing. Identical values can stand only once.

Assay [1] addresses human GPC3-His protein (human) (UniProt P51654). The assay can be described thus: ELISA, coated human GPC3, antibody 10 nM.
Assay [2] addresses GPC3 endogenously expressed on HepG2 cells (UniProt P51654). As to the kind of experiment: FACS on HepG2 cells.
For assay [3], the target named is human GPC3-His protein (human) (UniProt P51654). As to the kind of experiment: ELISA, coated human GPC3, antibody 1 nM. On the technique in general: In an ELISA, binding on a coated surface is turned into a signal by an enzyme label.
Assay [4] shares this target. The assay can be described thus: ELISA, coated human GPC3, antibody 0.0001 nM.
Assay [5] shares this target. As to the kind of experiment: ELISA, coated human GPC3, antibody 0.1 nM.
Assay [6] shares this target. As to the kind of experiment: ELISA, coated human GPC3, antibody 0.01 nM.
The target is the same in assay [7]. The assay can be described thus: ELISA, coated human GPC3, antibody 100 nM.
For assay [8] the target is unchanged. The assay can be described thus: ELISA, coated human GPC3, antibody 0.001 nM.
The target of assay [9] is GPC3 expressed endogenously on HepG2 cells (UniProt P51654). The assay can be described thus: FACS on HepG2 cells, control in the row of Y035.
Assay [10] addresses human GPC3 expressed on CHO-K1 recombinant cells (human) (UniProt P51654). The assay can be described thus: FACS on CHO-K1 clone CHOK1-hGPC3.2B5.
Assay [11] has as its target GPC3 expressed endogenously on HepG2 cells (UniProt P51654). As to the kind of experiment: FACS on HepG2 cells, control in the row of T2-23.
For assay [12], the target named is human GPC3 expressed on CHO-K1 recombinant cells (human) (UniProt P51654). The assay can be described thus: FACS on CHO-K1 clone CHOK1-hGPC3.1C3.
Assay [13] addresses murine GPC3-His protein (Sino Biological, Cat. No. 50989-M08B) (murine) (UniProt Q8CFZ4). As to the kind of experiment: ELISA, coated murine GPC3-His.
Assay [14] deals with monkey GPC3-His protein (Acro, Cat. No. GP3-C5225) (monkey). As to the kind of experiment: ELISA, coated monkey GPC3-His.
For assay [15], the target named is human GPC3-His protein (Acro, Cat. No. GP3-H52H4) (human) (UniProt P51654). As to the kind of experiment: ELISA, coated human GPC3-His.
For assay [16], the target named is human GPC3 expressed on CHO-K1 recombinant cells (human) (UniProt P51654). As to the kind of experiment: FACS on CHO-K1 clone CHOK1-hGPC3.3E9.
Assay [17] deals with GPC3 on HepG2 cells (human) (UniProt P51654). As to the kind of experiment: FACS on HepG2 cells.

murine GPC3-His protein (Sino Biological, Cat. No. 50989-M08B) (murine), sequence (Q8CFZ4 25-558 limits assumed): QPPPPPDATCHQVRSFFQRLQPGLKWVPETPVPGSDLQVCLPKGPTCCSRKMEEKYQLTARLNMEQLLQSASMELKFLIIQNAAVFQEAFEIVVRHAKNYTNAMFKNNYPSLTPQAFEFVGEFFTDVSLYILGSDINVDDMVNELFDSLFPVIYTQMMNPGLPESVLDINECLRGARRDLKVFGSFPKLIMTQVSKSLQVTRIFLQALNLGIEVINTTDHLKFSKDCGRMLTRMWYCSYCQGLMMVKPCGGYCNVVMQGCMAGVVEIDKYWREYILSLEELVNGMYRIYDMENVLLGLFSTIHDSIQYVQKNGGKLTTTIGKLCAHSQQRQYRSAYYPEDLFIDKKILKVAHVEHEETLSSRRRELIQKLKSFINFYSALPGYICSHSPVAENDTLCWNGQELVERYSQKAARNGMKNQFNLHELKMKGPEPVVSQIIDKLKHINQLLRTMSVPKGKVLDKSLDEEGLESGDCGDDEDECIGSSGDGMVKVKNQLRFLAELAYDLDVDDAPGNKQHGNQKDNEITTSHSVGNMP

Take “hIgG1 (IgG subtype control, human IgG1) (antibody)”: the OD450 nm in assay [1] amounted to 0.09 OD450; in [3] it was 0.09 OD450; in [4], 0.09 OD450; in assay [5], 0.09 OD450; in [6], 0.09 OD450; in assay [7], 0.11 OD450. Besides, in assay [8], the OD450 nm was determined as 0.09 OD450. Also, the Max MFI in assay [2] is 154 MFI and 258 MFI and 110 MFI.
As to hIgG1 (antibody), in assay [9], the Mean fluorescence intensity of cells was found to be 137 MFI. In addition, in [10], the Mean fluorescence intensity of cells was determined as 19.3 MFI. This substance displayed a Mean fluorescence intensity of cells in [11] of 137 MFI. For the same substance, the Mean fluorescence intensity of cells in assay [12] is 19.3 MFI. In assay [13], this substance yielded an OD450 at 0.0001 nM antibody of 0.049 OD450, an OD450 at 0.001 nM antibody of 0.051 OD450, an OD450 at 0.01 nM antibody of 0.052 OD450 and an OD450 at 0.1 nM antibody of 0.05 OD450. In assay [13], this substance showed an OD450 at 1 nM antibody of 0.05 OD450, an OD450 at 10 nM antibody of 0.055 OD450 and an OD450 at 100 nM antibody of 0.105 OD450. In assay [14], the OD450 at 0.0001 nM antibody came to 0.048 OD450, the OD450 at 0.001 nM antibody is 0.044 OD450, the OD450 at 0.01 nM antibody was 0.044 OD450 and the OD450 at 0.1 nM antibody is 0.045 OD450. In assay [14], this substance gave an OD450 at 1 nM antibody of 0.044 OD450, an OD450 at 10 nM antibody of 0.047 OD450 and an OD450 at 100 nM antibody of 0.056 OD450. In [15], this substance gave an OD450 at 0.0001 nM antibody of 0.047 OD450, an OD450 at 0.001 nM antibody of 0.048 OD450, an OD450 at 0.01 nM antibody of 0.048 OD450 and an OD450 at 0.1 nM antibody of 0.05 OD450. Further, in assay [15], the OD450 at 1 nM antibody was found to be 0.048 OD450, the OD450 at 10 nM antibody came out at 0.05 OD450 and the OD450 at 100 nM antibody is 0.072 OD450. Moreover, the Mean fluorescence intensity of cells in assay [16] was found to be 19.3 MFI.
In assay [13], hIgG1 control (antibody) came in with an OD450 at 0.0001 nM antibody of 0.06 OD450 nm, an OD450 at 0.001 nM antibody of 0.05 OD450 nm, an OD450 at 0.01 nM antibody of 0.05 OD450 nm and an OD450 at 0.1 nM antibody of 0.06 OD450 nm. In assay [13], this substance registered an OD450 at 1 nM antibody of 0.05 OD450 nm, an OD450 at 10 nM antibody of 0.06 OD450 nm and an OD450 at 100 nM antibody of 0.12 OD450 nm.
In assay [17], hIgG (antibody) gave a Max MFI of 58.8.
